These results are taken from the nanobody polyreactivity screen of Harvey et al. (2022).

This data set in a line: yeast display, Sf9 membrane polyspecificity reagent, FACS + sequencing; frameworks hold sequencing errors. The method, boiled down: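 After 36–48 hours of galactose induction, yeast (Saccharomyces cerevisiae BJ5465) displaying a synthetic nanobody library were stained at 4 °C for 1 hour with 10% biotinylated, detergent-solubilized Sf9 membrane reagent. Streptavidin microbeads enriched the stained cells before FACS sorting into low and high (top ~1%) gates on anti-HA and streptavidin fluorescence. Each clone's polyreactivity label reflects its gate of origin.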
Consider “QGQLVESGGGLVQAGGSLRLSCAASGRTVGEYTMGWSRPAPGKERELVAAISSAGRTNYADSVKGRFTISRDNAKNTVYLQMHRLKPEDTAVYYCAADWTDDVPGYDYWGQGTKVTVSS”, for which the “polyreactivity (PSR sort gate)” value was “low polyreactivity”. Turning to “QGQLVESGGGLVQAGGSLRLSCAASGSIFEGYVMGWYRQAPGKERELFATISFSGGSTYYADSVKGRFTISRDNAKNTGYLQMNSLKPVDTAVYFCADSVPYKFYSVVSVRYEYWGQGTQVTVSS”, the “polyreactivity (PSR sort gate)” value is “low polyreactivity”. Then “QGQLVESGGGLVQAGGSLRLSCAASGSIFVLNAMGWYRQAPGKERELVAAISGGSTNYADSVKGRFTISRDNAKNTVYLQMNSLKPEDTAVYYCAARARRRYYYWGQGTQVTVSS”, with “high polyreactivity”. As to “QGQLVESGGGLVQAGGSLRLSCAASGSSFRGNALGGYRQAPGKERELVASISYSGGSTYYADSVKGRFTISRDSAKNTVYLQMNSLKPEDTAVYYCAADDSVAYPYSGYQYYRHIYDDWGQGTQVTVSS”, the “polyreactivity (PSR sort gate)” value was “low polyreactivity”.

As to “QGQLVESGGGLVQAGGSLRLSCAASGSTFNSYAMGWYRQAPGKERELVAAISRGGASTYYADSVKGSFTISRDNAKNTVYLQMNSLKPEDTAVYYCATVYYHRFDYWGQGTQVTVSS”, the “polyreactivity (PSR sort gate)” value was “high polyreactivity”. Consider “QGQLVESGGGLVQAGGSLRLSCAASGSTFTRYGMGWYRQAPGKERELVAAITTSGSSTYYADSVKGRFTISRDNAKNTVYLQMNSLKPEDTAVYYCAADWSSWGFDYWGQGTQVTVSS”, for which the “polyreactivity (PSR sort gate)” value was “low polyreactivity”. Then “QGQLVESGGGLVQAGGSLRLSCAASGSTFYLNAMGWYRQAPGKERELVATITRRGGRTYYADSVKGRFTISRDNAKNTVYLKMNSLKPEDTAVYYCNKGGISPGDALYGYWGQGTQVTVSS”, with “low polyreactivity”; and “QGQLVESGGGLVQAGGSLRLSCAASGSTFYTNAMGWYRQAPGKERELVAAISGSGGSTYYADSVKGRFTISRDNAKNTVYVQMNSRKPEDTAVYYCAARSRYYYTRFDYWGQGTQVTVSS”, with “low polyreactivity”; and “QGQLVESGGGLVQAGGSLRLSCAASGSTYPNNTMGWYREAPGKEWEFVAAITGDGGTTYYADSVKGRFTISRDNAKNTVYLQMNSLKPEDSAVYYCAVPYPAEGYGVDYWGQGTQVTVSS”, with “low polyreactivity”. Then “QGQLVESGGGLVQAGGSLRLTCAASGSTFDQNVMGWYRQAPGKERELVDTINFSGDSTYYADSVKGRFTISRDNAKNTVYLQRNSLKPEDTAVYYCAVDWGEYIDTSVKRDISSYWGQGTQVTVSS”, with “low polyreactivity”; and “QGQLVESGGGLVQAGGSVRLSCAASRITLGSNAMGWDRQAPGKERELVAAITSGSSTYYADSVKGRFTISRDNAKNTVNLQMNSLKPEDTAVYYCAADPTSYSYEYNYWGQGTQVTVSS”, with “low polyreactivity”; and “QGQLVESGGGLVQAGGTLRLSCAASGSTFAVYVMGGYRQAPGTERELVAAISTSGARTYYADSVKGRFTISRDNAKNTVYLQMNSLKPEDTAVYYCAARSNALFRFDYWGQGTQVTVSS”, with “high polyreactivity”. Then “QGQLVESGGGLVQAGVTLRLSCAASGITFPWYAMGWYRQAPGKERELVASITSGGSTNYADSVKGRFTISRDNSKNTVYLQMNSLKPEDTAVSYCARDWYSPVYWAAGYDAWGSGYDYWGQGTQVTVSS”, with “high polyreactivity”; and “QGQLVESWGGLVQAGGSLRLSCAASGSTLRRYAMGWYRQAPGKERELVAAISRRGGSTYYADSVKGRFSISRDFAKNTVYLEMNSLKPEDTAVYYCAAKGFSTRQFDYWGQGTQVTVSS”, with “high polyreactivity”; and “QIQLVESGGGLVQAGGSLRLSCAASGSIFSKYAMGWYRQAPGKERELVAAISAGGGSTYYADSVKGRFTISRDNAKNTVYLQMNSLKPEDTAVYYCAARSRFRFDYWVQGTQVTVSS”, with “high polyreactivity”.

On to “QIQLVESVGGLVQAGGSLRLSCDASGSTLKYTAMGWYRQAPRKESELVAAISTSGGNTYYADSVKGPFTISRDNAKNTVYLQMNSLKPEDTAVYYCAKVLGYYYYDYDSWGQGTQVTVSS”, for which the “polyreactivity (PSR sort gate)” value was “low polyreactivity”.
